Laboratory results published in patent publication US20070243589A1 (Pfizer, published 2007).
Values belong to the binder of their own block, whether it stands above or below them.

How the values were obtained:
[1] = biological target: T1, biotinylated IL-22 with an N-terminal His/FLAG tag (bio.IL-22H/F) (human, UniProt Q9GZX6 34-179, biotinylated (site not stated)); assay: DELFIA competition assay: scFv titrated against bio.IL-22H/F binding to the captured IL-22 receptor complex
T1 construct: not shown: N-terminal His/FLAG tag
T1 sequence: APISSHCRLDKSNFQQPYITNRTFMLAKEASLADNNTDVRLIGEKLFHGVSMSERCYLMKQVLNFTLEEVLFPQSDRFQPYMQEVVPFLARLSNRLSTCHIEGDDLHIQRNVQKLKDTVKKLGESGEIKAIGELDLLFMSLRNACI
Procedure: (§1) Both the IL-22/IL-22R binding assay (described above) and the IL-22/IL-22 receptor complex assay (described below) were used. ScFv concentrations were titrated in order to establish the clone potencies as measured by assay IC₅₀ values. These were determined using GraphPad Prism software and four-parameter logistic equation curve fitting.
(§2) Microtiter plates were coated with an IL-22 receptor complex antibody (1 μg/ml in PBS), and incubated for 1.5 hours at room temperature. Plates were washed three times in PBST, and blocked for 1 hour at room temperature with 2% MPBS. After a further 3 washes, diluted cell conditioned medium containing an IL-22 receptor complex was added and incubated overnight at 4° C. Crude scFv supernatants were prepared as described above. The following day, 25 μl of diluted scFv sample and 25 μl of bio.IL-22H/F (6 ng/ml) were added to the washed plates, and incubated for 1.5 hours at room temperature. Plates were washed 3 times in PBST, then binding of bio.IL-22H/F to the IL-22 receptor complex was detected with Europium-Streptavidin and the DELFIA® reagent kit (PerkinElmer). Time Resolved Fluorescence was measured using a Victor 2™ Plate Reader (Perkin Elmer).

[2] = biological target: T1, biotinylated IL-22 with an N-terminal …; assay: IL-22 receptor complex inhibition assay (bio.IL-22H/F binding to IL-22 receptor complex, DELFIA), scFv
Procedure: as §1, §2

[3] = biological target: T1, biotinylated IL-22 with an N-terminal …; assay: biotinylated IL-22 binding IL-22 receptor complex competition assay, purified scFv, parent
Procedure: as §2
(§3) Sequence data for the six parent clones was used to identify the nearest germline sequence for the heavy and light chain of each clone. Appropriate mutations were made using standard site directed mutagenesis techniques with the appropriate mutagenic primers. Mutation of sequences was confirmed by sequence analysis. Purified scFv from the germlined parent clones were tested in the biotinylated IL-22 binding IL-22 receptor complex competition assay as described earlier, in order to establish the clone potency as measured by IC₅₀ values in the assay.

[4] = biological target: T1, biotinylated IL-22 with an N-terminal …; assay: DELFIA competition assay: scFv titrated against bio.IL-22H/F binding to the captured IL-22 receptor complex; remark: listed apart in the source
Procedure: as §2
Purified scFv from positive clones identified from the screening were tested in the DELFIA® IL-22 receptor complex competition assay as described above. A titration of scFv concentrations was used in order to establish the clone potency as measured by IC₅₀ values in the assay. Fourteen optimized clones were designated 097D09, 062A09, 062G05, 087B03, 367D04, 368D04, 166B06, 166G05, 375G06, 376B10, 354A08, 355B06, 355E04, and 356A11.

[5] = biological target: T1, biotinylated IL-22 with an N-terminal …; assay: IL-22 receptor complex inhibition assay (bio.IL-22H/F binding to IL-22 receptor complex, DELFIA), IgG
Procedure: Potency of purified IgG was verified in the biochemical IL-22 receptor complex inhibition assay as described below. IgG concentrations were titrated in order to obtain potency values.
as §2

[6] = biological target: T1, biotinylated IL-22 with an N-terminal …; assay: biotinylated IL-22 binding IL-22 receptor complex competition assay, purified scFv, fully germlined
Procedure: as §2, §3

- IC50 [1]: 40 nM
- IC50 [2]: 16 nM
- IC50 [3]: 18 nM
- IC50 [4]: 15.3 nM
B3: GIL92 scFv (non-germlined parent) (scFv)
scFv: QVQLVQSGAEVKKPGASVKVSCKASGYTFTDYYMHWVRQAPGQGLEWVGWINPYTGGAFYAQKFRGRVTMTRDTSINTAYMELSRLGSDDTAVYYCAREPEKFDFWGGDNWGRGTMVTVSSGGGGSGGGGSGGGGSAQAVLTQPSSVSGAPGQRVTISCTGSSSNIGAGYGVHWYQQLPGTAPKLLIYGNSNRPSGVPDRFSGSKSGTSASLAITGLQAEDEADYYCQSYDSSLSGYVFGTGTQLTVLSAAA

- IC50 [1]: 55 nM
- IC50 [2]: 49 nM
- IC50 [3]: 44 nM
- IC50 [4]: 25.9 nM
B4: GIL16 scFv (non-germlined parent) (scFv)
scFv: QVQLVESGAEVKKPGASVKVSCKASGYTFTSYGISWVRQAPGQGLEWMGWISAYTGNTNYAQKFQGRVTMTTDTSTSTAYMELRSLRSDDTAVYYCARDRGYYDAFDIWGQGTLVTVSSGGGGSGGGGSGGGGSDIQMTQSPSTLSASIGDRVTITCRASEGIYHWLAWYQQKPGKAPKLLIYKASSLASGAPSRFSGSGSGTDFTLTISSLQPDDFATYYCQQYSNYPLTFGGGTKLEIKRAAA

- IC50 [5]: 180 nM
B7: GIL45 IgG (non-germlined parent) (antibody, V domains shown)
VH: QMQLVQSGGGVVQPGRSLRLSCAASGFTFSNYGMYWVRQAPGKGLEWVAHIWYDGSNEKYADSVKGRMTVSRDNSRNTLYLQMNSLRAEDTAVYYCATEQHWITAFDIWGKGTLVTVSS
VL: QSVLTQPASVSGSPGQSITISCTGTSSDVGGYNYVSWYQQHPGKAPKLMIYEGSKRPSGVSNRFSGSKSGNTASLTISGLQAEDEADYYCSSYTTRSTRVFGGGTKLTVLG
notes: Human IgG4 heavy chain constant domain

- IC50 [6]: 14 nM
B11: GIL68 scFv, fully germlined (scFv)
scFv: QVQLVQSGAEVKKPGASVKVSCKASGYTFSDYYIHWVRQAPGQGLEWMGWVNPDTGGTRYAQKFQGRVTMTRDMSISTAYMELSRLRSDDTAVYYCARDLTGFDPFDIWGQGTLVTVSSGGGGSGGGGSGGGGSASSVLTQPPSVSVAPGKTARITCGGNNFRNKRVHWYQQKPGQAPVLVIYYDSDRPSGIPERFSGSRSGNTATLTISRVEAGDEADYYCQVWDSSTDRPLFGGGTKLTVLGA

- IC50 [5]: 10 nM
B13: GIL16 IgG (non-germlined parent) (antibody, V domains shown)
VH: QVQLVESGAEVKKPGASVKVSCKASGYTFTSYGISWVRQAPGQGLEWMGWISAYTGNTNYAQKFQGRVTMTTDTSTSTAYMELRSLRSDDTAVYYCARDRGYYDAFDIWGQGTLVTVSS
VL: DIQMTQSPSTLSASIGDRVTITCRASEGIYHWLAWYQQKPGKAPKLLIYKASSLASGAPSRFSGSGSGTDFTLTISSLQPDDFATYYCQQYSNYPLTFGGGTKLEIKR
notes: as for B7

More lines, now with the values behind:

B1: GIL01 scFv (non-germlined parent) (scFv)
scFv: EVQLVESGGGLVTPGGSLRLSCAASGFTFSDYYMSWIRQAPGRGLEWVSAISGSGGSTYYADSVKGRITISRDNAKNSLYLQMSSLRSEDTAVYYCARGLWVWDPLDYWGRGTLVTVSSGGGGSGGGGSGGGGSDIQMTQSPSTLSASIGDRVTITCRASEGIYHWLAWYQQKPGKAPKLLIYKASSLASGAPSRFSGSGSGTDFTLTISSLQPDDFATYYCQQYSNYPLTFGGGTKLEIKRAAA
notes: also called GIL 1
- IC50 [1]: 95 nM
- IC50 [2]: 104 nM
- IC50 [3]: 124 nM
- IC50 [4]: 129 nM

B2: GIL60 scFv (non-germlined parent) (scFv)
scFv: EVQLVESGGGVVRPGGSLRLSCAASGFTFDDYGMNWVRQAPGKGLEWVSGVNGNGGTRDYAASVKGRFTISRDNAKNSLYLQMNSLRAEDTALYYCARGWYSGSFYYFGYWGRGTLVTVSSGGGGSGGGGSGGGGSAQAVLTQPSSVSGSPGQSITISCTGASGDVGAYNFVSWYQQHPGKTPKLIIYDVNKRPSGVSNRFSGSKSGNTASLTISGLQAEDESDYYCSSYTSTFSVVFGGGTKVTVLGAA
- IC50 [1]: 60 nM
- IC50 [2]: 43 nM
- IC50 [3]: 51 nM
- IC50 [4]: 30.8 nM

B5: GIL68 IgG (non-germlined parent) (antibody, V domains shown)
VH: EVQLVQSGAEVKKPGASVKVSCQASGYTFSDYYIHWVRQTPGQGFEWMGWVNPDTGGTRYAQKFQGWVTMTRDMSNTTAYMELPRLRDDDTAVYYCARDLTGFDPFDIWGQGTLVTVSS
VL: QSVLTQPPSVSVAPGKTATITCGGNNFRNKRVHWYQQRPGQAPVLVIYYDSDRPSGIPERFSGSRSGNTATLTISRVEAGDEADFYCQVWDSSTDRPLFGGGTKLTVLG
notes: Human IgG4 heavy chain constant domain; Cryptate labeled in the HTRF assay; also called cryptate labeled GIL68 IgG
- IC50 [5]: 2 nM

B6: GIL45 scFv (non-germlined parent) (scFv)
scFv: QMQLVQSGGGVVQPGRSLRLSCAASGFTFSNYGMYWVRQAPGKGLEWVAHIWYDGSNEKYADSVKGRMTVSRDNSRNTLYLQMNSLRAEDTAVYYCATEQHWITAFDIWGKGTLVTVSSGGGGSGAGGSGGGGSQSVLTQPASVSGSPGQSITISCTGTSSDVGGYNYVSWYQQHPGKAPKLMIYEGSKRPSGVSNRFSGSKSGNTASLTISGLQAEDEADYYCSSYTTRSTRVFGGGTKLTVLGAAAH
- IC50 [2]: 358 nM

B8: GIL01 scFv, fully germlined (scFv)
scFv: QVQLVESGGGLVKPGGSLRLSCAASGFTFSDYYMSWIRQAPGKGLEWVSAISGSGGSTYYADSVKGRITISRDNAKNSLYLQMNSLRAEDTAVYYCARGLWVWDPLDYWGRGTLVTVSSGGGGSGGGGSGGGGSDIQMTQSPSTLSASVGDRVTITCRASEGIYHWLAWYQQKPGKAPKLLIYKASSLASGVPSRFSGSGSGTDFTLTISSLQPDDFATYYCQQYSNYPLTFGGGTKVEIKRA
- IC50 [6]: 143 nM

B9: GIL16 scFv, fully germlined (scFv)
scFv: QVQLVQSGAEVKKPGASVKVSCKASGYTFTSYGISWVRQAPGQGLEWMGWISAYTGNTNYAQKFQGRVTMTTDTSTSTAYMELRSLRSDDTAVYYCARDRGYYDAFDIWGQGTLVTVSSGGGGSGGGGSGGGGSDIQMTQSPSTLSASVGDRVTITCRASEGIYHWLAWYQQKPGKAPKLLIYKASSLASGVPSRFSGSGSGTEFTLTISSLQPDDFATYYCQQYSNYPLTFGGGTKVEIKRA
- IC50 [6]: 38 nM

B10: GIL60 scFv, fully germlined (scFv)
scFv: EVQLVESGGGVVRPGGSLRLSCAASGFTFDDYGMNWVRQAPGKGLEWVSGVNWNGGTRDYAASVKGRFTISRDNAKNSLYLQMNSLRAEDTALYHCARGWYSGSFYYFGYWGRGTLVTVSSGGGGSGGGGSGGGGSAQAALTQPASVSGSPGQSITISCTGASGDVGAYNFVSWYQQHPGKAPKLIIYDVNKRPSGVSNRFSGSKSGNTASLTISGLQAEDEADYYCSSYTSTFSVVFGGGTKLTVLGA
- IC50 [6]: 82 nM

B12: GIL01 IgG (non-germlined parent) (antibody, V domains shown)
VH: EVQLVESGGGLVTPGGSLRLSCAASGFTFSDYYMSWIRQAPGRGLEWVSAISGSGGSTYYADSVKGRITISRDNAKNSLYLQMSSLRSEDTAVYYCARGLWVWDPLDYWGRGTLVTVSS
VL: DIQMTQSPSTLSASIGDRVTITCRASEGIYHWLAWYQQKPGKAPKLLIYKASSLASGAPSRFSGSGSGTDFTLTISSLQPDDFATYYCQQYSNYPLTFGGGTKLEIKR
notes: as for B7
- IC50 [5]: 13 nM

B14: GIL60 IgG (non-germlined parent) (antibody, V domains shown)
VH: EVQLVESGGGVVRPGGSLRLSCAASGFTFDDYGMNWVRQAPGKGLEWVSGVNWNGGTRDYAASVKGRFTISRDNAKNSLYLQMNSLRAEDTALYYCARGWYSGSFYYFGYWGRGTLVTVSS
VL: QAVLTQPSSVSGSPGQSITISCTGASGDVGAYNFVSWYQQHPGKTPKLIIYDVNKRPSGVSNRFSGSKSGNTASLTISGLQAEDESDYYCSSYTSTFSVVFGGGTKVTVLG
notes: as for B7
- IC50 [5]: 15 nM
